Among the data in patent publication US20050008648A1 are apoptosis assay on NB4 cells, conjugate with AraC 250 nM and cell death of HL60 cells (Annexin V and propidium iodide staining), conjugate in combination with AraC 1 µM values, retold here.

In this experiment the target is CD33 (UniProt P20138). Briefly: cell-based or functional assay.
Chain of CD33 (P20138 18-364 limits assumed): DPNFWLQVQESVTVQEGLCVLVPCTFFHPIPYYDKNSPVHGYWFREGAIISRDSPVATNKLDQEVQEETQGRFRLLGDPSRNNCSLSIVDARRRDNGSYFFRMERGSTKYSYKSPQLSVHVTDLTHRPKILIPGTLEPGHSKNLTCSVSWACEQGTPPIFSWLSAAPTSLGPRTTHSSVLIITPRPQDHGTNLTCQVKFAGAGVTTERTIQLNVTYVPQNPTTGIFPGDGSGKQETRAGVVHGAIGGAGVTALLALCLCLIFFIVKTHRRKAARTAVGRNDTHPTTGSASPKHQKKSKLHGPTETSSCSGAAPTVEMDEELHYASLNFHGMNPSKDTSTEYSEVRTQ

Chain of HuM195-dCK conjugate (B2R8V6 whole entry): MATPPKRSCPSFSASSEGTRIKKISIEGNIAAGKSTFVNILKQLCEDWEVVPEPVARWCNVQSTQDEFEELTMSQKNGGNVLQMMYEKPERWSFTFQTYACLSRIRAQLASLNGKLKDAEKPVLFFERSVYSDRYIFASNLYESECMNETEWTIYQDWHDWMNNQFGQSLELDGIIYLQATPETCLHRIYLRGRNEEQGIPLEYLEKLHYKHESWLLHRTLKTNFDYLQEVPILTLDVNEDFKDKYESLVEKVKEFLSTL

Regarding HuM195-dCK conjugate, the apoptosis assay on NB4 cells, conjugate with AraC 250 nM came to 65%; the cell death of HL60 cells (Annexin V and propidium iodide staining), conjugate in combination with AraC 1 µM was 70%.
